Assay results: patent publication US20230416364A1 (Bristol-Myers Squibb, published 2023)

T1: human CD25 (IL-2R alpha) on HEK-Blue IL-2 reporter cells (human, UniProt P01589 22-272)
T1 sequence: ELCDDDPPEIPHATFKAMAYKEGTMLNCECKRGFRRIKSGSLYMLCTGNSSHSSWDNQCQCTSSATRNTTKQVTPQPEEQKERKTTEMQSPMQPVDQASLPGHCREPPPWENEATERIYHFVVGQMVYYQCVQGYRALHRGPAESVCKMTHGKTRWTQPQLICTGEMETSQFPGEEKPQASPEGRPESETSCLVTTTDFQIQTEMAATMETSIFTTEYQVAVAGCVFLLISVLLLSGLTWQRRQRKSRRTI

B1: mouse IL-2 (ligand, UniProt P04351 21-169, looked up)
chain: APTSSSTSSSTAEAQQQQQQQQQQQQHLEQLLMDLQELLSRMENYRNLKLPRMLTFKFYLPKQATELKDLQCLEDELGPLRHVLDLTQSKSFQLEDAENFISNIRVTVVKLKGSDNTFECQFDDESATVVDFLRRWIAFCQSIISTSPQ

Assays:
[1] = molecular target: B1; experiment: SPR, Biacore T200, 37° C., fusion captured by anti-mouse IgG on CM4 chip, mIL-2 as analyte
Description: Truncations of mCD25 are presented at FIG. 3A.
Unless otherwise indicated, binding kinetics were determined with a BIACORE® SPR surface plasmon resonance spectrometer (Biacore AB, Uppsala, Sweden). […] The assay temperature was 37° C. and the running buffer was HEPES buffered saline pH 7.4 supplemented with 0.05% (v/v) Tween-20 and 1 g/L BSA. Purified mPD1−mCD25 variants were captured on a Biacore™ CM4 chip with immobilized anti-mouse IgG polyclonal capture antibody. […] Between cycles, the capture surface was regenerated for three minutes with 10 mM Glycine pH 1.7. Double-referenced sensorgrams were fitted to a 1:1 Langmuir binding model with mass transport to determine equilibrium dissociation constants (KD), as well as association (kₐ) and dissociation (kd) rate constants where appropriate.

[2] = molecular target: hemi-mCD25 modified anti-mPD-1 antibody 4H2 (4H2 mG1 D265A KK CD25.b+4H2 mG1 D265A blank); experiment: cell-based or functional assay
[3] = molecular target: fully mCD25 modified anti-mPD-1 antibody 4H2, (4H2 mG1 D265A KK CD25.b)2; experiment: cell-based or functional assay
[4] = molecular target: T1, human CD25 (IL-2R alpha) on HEK-Blue …; experiment: cell-based or functional assay

Row | Kd [1] | EC50 of mIL-2 (read off the curve) with 280 pM fusion; SEAP reporter (ABS620), CD25- mPD-1+ HEK-Blue IL-2 cells [2] | EC50 of mIL-2 (read off the curve) with 2.8 nM fusion; SEAP reporter (ABS620), CD25- mPD-1+ HEK-Blue IL-2 cells [2] | EC50 of mIL-2 (read off the curve) with 260 pM fusion; SEAP reporter (ABS620), CD25- mPD-1+ HEK-Blue IL-2 cells [3] | EC50 of mIL-2 (read off the curve) with 2.6 nM fusion; SEAP reporter (ABS620), CD25- mPD-1+ HEK-Blue IL-2 cells [3] | EC50 (read off the curve); SEAP reporter (ABS620), HEK-Blue IL-2 CD25+ cells [4] | Binder
1 | 14 nM | – | – | – | – | – | anti-mPD-1 mAb 4H2 fused to mCD25 variant a (full-length mCD25 ECD) (other, also called 4H2-mCD25 variant a; mPD1-mCD25 variant a) heavy: QVQLKESGPGLVQPSQTLSLTCTVSGFSLTSYNVHWVRQPPGKGLEWMGGMRYNEDTSYNSALKSRLSISRDTSKNQVFLKMNSLQTDDTGTYYCTRDAVYGGYGGWFAYWGQGTLVTVSSAKTTPPSVYPLAPGSAAQTNSMVTLGCLVKGYFPEPVTVTWNSGSLSSGVHTFPAVLESDLYTLSSSVTVPSSTWPSETVTCNVAHPASSTKVDKKIVPRDCGCKPCICTVPEVSSVFIFPPKPKDVLTITLTPKVTCVVVAISKDDPEVQFSWFVDDVEVHTAQTQPREEQFNSTFRSVSELPIMHQDWLNGKEFKCRVNSAAFPAPIEKTISKTKGRPKAPQVYTIPPPKKQMAKDKVSLTCMITDFFPEDITVEWQWNGQPAENYKNTQPIMKTDGSYFVYSKLNVQKSNWEAGNTFTCSVLHEGLHNHHTEKSLSHSPGGGGSGGGGSGGGGSELCLYDPPEVPNATFKALSYKNGTILNCECKRGFRRLKELVYMRCLGNSWSSNCQCTSNSHDKSRKQVTAQLEHQKEQQTTTDMQKPTQSMHQENLTGHCREPPPWKHEDSKRIYHFVEGQSVHYECIPGYKALQRGPAISICKMKCGKTGWTQPQLTCVDEREHHRFLASEESQGSRNSSPESETSCPITTTDFPQPTETTAMTETFVLTMEYK light: DTVLTQSPALAVSLGQRVTISCKASETVSSSMYSYIHWYQQKPGQQPKLLIYRASNLESGVPARFSGSGSGTDFTLTIDPVEADDVATYFCQQSWNPWTFGGGTKLELKRADAAPTVSIFPPSSEQLTSGGASVVCFLNNFYPKDINVKWKIDGSERQNGVLNSWTDQDSKDSTYSMSSTLTLTKDEYERHNSYTCEATHKTSTSPIVKSFNRNEC
2 | 14 nM | – | – | – | – | – | anti-mPD-1 mAb 4H2 fused to mCD25 variant b (other, also called 4H2-mCD25 variant b; mPD1-mCD25 variant b) heavy: QVQLKESGPGLVQPSQTLSLTCTVSGFSLTSYNVHWVRQPPGKGLEWMGGMRYNEDTSYNSALKSRLSISRDTSKNQVFLKMNSLQTDDTGTYYCTRDAVYGGYGGWFAYWGQGTLVTVSSAKTTPPSVYPLAPGSAAQTNSMVTLGCLVKGYFPEPVTVTWNSGSLSSGVHTFPAVLESDLYTLSSSVTVPSSTWPSETVTCNVAHPASSTKVDKKIVPRDCGCKPCICTVPEVSSVFIFPPKPKDVLTITLTPKVTCVVVAISKDDPEVQFSWFVDDVEVHTAQTQPREEQFNSTFRSVSELPIMHQDWLNGKEFKCRVNSAAFPAPIEKTISKTKGRPKAPQVYTIPPPKKQMAKDKVSLTCMITDFFPEDITVEWQWNGQPAENYKNTQPIMKTDGSYFVYSKLNVQKSNWEAGNTFTCSVLHEGLHNHHTEKSLSHSPGGGGSGGGGSGGGGSELCLYDPPEVPNATFKALSYKNGTILNCECKRGFRRLKELVYMRCLGNSWSSNCQCTSNSHDKSRKQVTAQLEHQKEQQTTTDMQKPTQSMHQENLTGHCREPPPWKHEDSKRIYHFVEGQSVHYECIPGYKALQRGPAISICKMKCGKTGWTQPQLTCVDEREHHRFLASEESQGSRNSSPESETSCPITTTDFPQP light: DTVLTQSPALAVSLGQRVTISCKASETVSSSMYSYIHWYQQKPGQQPKLLIYRASNLESGVPARFSGSGSGTDFTLTIDPVEADDVATYFCQQSWNPWTFGGGTKLELKRADAAPTVSIFPPSSEQLTSGGASVVCFLNNFYPKDINVKWKIDGSERQNGVLNSWTDQDSKDSTYSMSSTLTLTKDEYERHNSYTCEATHKTSTSPIVKSFNRNEC
3 | – | ~300 pM | ~100 pM | ~200 pM | ~100 pM | ~50 pM | B1
